PMC4654454 (ACS chemical biology, 2015)

How the values were obtained:
[1] = biological target: T1, hORC1 BAH F89S (human, UniProt Q13415 45-171, F89S); assay: EMSA
T1 sequence: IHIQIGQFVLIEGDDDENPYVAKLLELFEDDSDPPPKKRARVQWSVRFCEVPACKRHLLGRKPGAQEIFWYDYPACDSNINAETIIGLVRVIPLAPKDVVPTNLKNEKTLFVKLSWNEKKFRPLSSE

[2] = biological target: T2, hORC1 BAH E127G (human, UniProt Q13415 45-171, E127G); assay: EMSA
T2 sequence: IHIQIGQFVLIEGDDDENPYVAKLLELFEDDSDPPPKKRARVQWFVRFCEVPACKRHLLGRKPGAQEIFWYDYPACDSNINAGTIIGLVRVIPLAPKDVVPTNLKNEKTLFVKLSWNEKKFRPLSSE

B1: 14-bp DNA duplex (dsDNA)
DNA 1: GGAGGCCTCCTGCT
DNA 2: AGCAGGAGGCCTCC
binding result [1]: binds | binding result [2]: binds
